We go through 1 substance from PMC3741272, “Identification and Characterization of a Novel aac(6′)-Iag Associated with the bla IMP-1–Integron in a Multidrug-Resistant Pseudomonas aeruginosa” (PLoS ONE, 2013).

For orientation: Km means the substrate concentration at which the rate is half of its maximum. Usually kcat stands for the maximal rate divided by the concentration of active sites. Broadly, the kcat/Km is the turnover number divided by the Michaelis constant.

Common to all, as to assay: purified protein
Holding throughout (assay type): biochemical, Pseudomonas aeruginosa
Common to all, as to conditions: 200 µM acetyl-CoA, 2 mM DTNB, 50 mM phosphate pH 7.0, 37°C

For data set [1], the system named is NC[C@H]1O[C@H](O[C@H]2[C@H](O)[C@@H](O[C@H]3O[C@H](CO)[C@@H](O)[C@H](N)[C@H]3O)[C@H](N)C[C@@H]2N)[C@H](N)C[C@@H]1O.
Data set [2] deals with CN[C@@H]1[C@@H](O)[C@@H](O[C@@H]2[C@@H](O)[C@H](O[C@H]3O[C@H](CN)[C@@H](O)[C@H](O)[C@H]3O)[C@@H](N)C[C@H]2NC(=O)[C@@H](O)CN)OC[C@]1(C)O.
For data set [3], the system named is CN[C@@H]1[C@@H](O)[C@@H](O[C@@H]2[C@@H](O)[C@H](O[C@H]3OC(CN)=CC[C@H]3N)[C@@H](N)C[C@H]2N)OC[C@]1(C)O.
Data set [4] has as its system NCC[C@H](O)C(=O)N[C@@H]1C[C@H](N)[C@@H](O[C@H]2O[C@H](CN)[C@@H](O)[C@H](O)[C@H]2O)[C@H](O)[C@H]1O[C@H]1O[C@H](CO)[C@@H](O)[C@H](N)[C@H]1O.
Data set [5] concerns NCC[C@H](O)C(=O)N[C@@H]1C[C@H](N)[C@@H](O[C@H]2O[C@H](CN)CC[C@H]2N)[C@H](O)[C@H]1O[C@H]1O[C@H](CO)[C@@H](O)[C@H](N)[C@H]1O.
Data set [6] deals with NC[C@@H]1CC[C@@H](N)[C@@H](O[C@H]2[C@H](O)[C@@H](O[C@H]3O[C@H](CO)[C@@H](O)[C@H](N)[C@H]3O)[C@H](N)C[C@@H]2N)O1.
Data set [7] has as its system NC[C@H]1O[C@H](O[C@H]2[C@H](O)[C@@H](O[C@H]3O[C@H](CO)[C@@H](O)[C@H](N)[C@H]3O)[C@H](N)C[C@@H]2N)[C@H](O)[C@@H](O)[C@@H]1O.

As to AAC(6′)-Iag (Pseudomonas aeruginosa), the Km was 3.27 ± 0.76 µM in data set [1]; 209 ± 88 µM in data set [2]; 8.81 ± 1.2 µM in data set [3]; 189 ± 108 µM in data set [4]; 9.9 ± 1.2 µM in data set [5]; 3.03 ± 0.64 µM in data set [6]. The Km in data set [7] was determined as 52.1 ± 16 µM. The kcat in data set [1] is 0.15 ± 0.03 s⁻¹; in data set [2], 0.10 ± 0.03 s⁻¹; in data set [3], 0.745 ± 0.08 s⁻¹; in data set [4], 0.11 ± 0.03 s⁻¹; in data set [5] it was 0.79 ± 0.07 s⁻¹; in data set [6], 0.194 ± 0.02 s⁻¹. Also, in data set [7], the kcat stood at 0.29 ± 0.06 s⁻¹. Besides, the kcat/Km in data set [1] was 46000 M⁻¹ s⁻¹; in data set [2], 520 M⁻¹ s⁻¹; in data set [3] it was 85000 M⁻¹ s⁻¹; in data set [4] it was 780 M⁻¹ s⁻¹; in data set [5] it was 80000 M⁻¹ s⁻¹; in data set [6] it was 64000 M⁻¹ s⁻¹. In data set [7], the kcat/Km was determined as 5600 M⁻¹ s⁻¹.
